The values that follow come from paper PMC6760140.

For this test, the target named is Recombinant His-tagged Pfs25, P13829. In words: BLI. As to conditions: chain shown with the change; immobilized Pfs25 and mutant Fab analyte; parent: est. 4.6; read off a plot.

B1: 2544 Fab κC:P94T (protein)
chain 1: EVQLVESGGGLVQPGGSLRLSCVASGFTFSNYNMNWVRQAPGKGLEWLSYISSSSGTIYYADSVKGRFTISRDNAKNSMYLQMNSLRAEDTAVYYCVRVEYYYGSSGYYYDFDSWGQGTLVTVSS
chain 2: DIVMTQSPLSLPVTPGEPASISCRSSQSLLHNGYNYLDWYLQKPGQSPQLLIYLGSNRASGVPDRFSGSGSGTDFTLKISRVEAEDVGVYYCMQTLQTFTFGQGTRLEIK
Turning to B1, the Kd – broadly, the constant that tells how readily two partners part at equilibrium – turned out to be 14 nM.

B2: 2544 Fab HC:G55S (protein)
chain 1: EVQLVESGGGLVQPGGSLRLSCVASGFTFSNYNMNWVRQAPGKGLEWLSYISSSSSTIYYADSVKGRFTISRDNAKNSMYLQMNSLRAEDTAVYYCVRVEYYYGSSGYYYDFDSWGQGTLVTVSS
chain 2: DIVMTQSPLSLPVTPGEPASISCRSSQSLLHNGYNYLDWYLQKPGQSPQLLIYLGSNRASGVPDRFSGSGSGTDFTLKISRVEAEDVGVYYCMQTLQPFTFGQGTRLEIK
For B2, the Kd was found to be 14 nM.

B3: 2544 Fab HC:D100GY (protein)
chain 1: EVQLVESGGGLVQPGGSLRLSCVASGFTFSNYNMNWVRQAPGKGLEWLSYISSSSGTIYYADSVKGRFTISRDNAKNSMYLQMNSLRAEDTAVYYCVRVEYYYGSSGYYYYFDSWGQGTLVTVSS
chain 2: DIVMTQSPLSLPVTPGEPASISCRSSQSLLHNGYNYLDWYLQKPGQSPQLLIYLGSNRASGVPDRFSGSGSGTDFTLKISRVEAEDVGVYYCMQTLQPFTFGQGTRLEIK
On to B3, for which the Kd is 18 nM.

B4: 2544 Fab κC:T91A (protein)
chain 1: EVQLVESGGGLVQPGGSLRLSCVASGFTFSNYNMNWVRQAPGKGLEWLSYISSSSGTIYYADSVKGRFTISRDNAKNSMYLQMNSLRAEDTAVYYCVRVEYYYGSSGYYYDFDSWGQGTLVTVSS
chain 2: DIVMTQSPLSLPVTPGEPASISCRSSQSLLHNGYNYLDWYLQKPGQSPQLLIYLGSNRASGVPDRFSGSGSGTDFTLKISRVEAEDVGVYYCMQALQPFTFGQGTRLEIK
As for B4, the Kd was found to be 12 nM.

B5: 2544 Fab κC:F95P (protein)
chain 1: EVQLVESGGGLVQPGGSLRLSCVASGFTFSNYNMNWVRQAPGKGLEWLSYISSSSGTIYYADSVKGRFTISRDNAKNSMYLQMNSLRAEDTAVYYCVRVEYYYGSSGYYYDFDSWGQGTLVTVSS
chain 2: DIVMTQSPLSLPVTPGEPASISCRSSQSLLHNGYNYLDWYLQKPGQSPQLLIYLGSNRASGVPDRFSGSGSGTDFTLKISRVEAEDVGVYYCMQTLQPPTFGQGTRLEIK
With B5, the equilibrium dissociation constant (Kd) turned out to be 22000 nM.
